Experiment in all cases: SPR
Test [1] deals with T1, recombinant cynomolgus monkey sclerostin (cynomolgus monkey).
T1 construct: also called cyno sclerostin; Cyno sclerostin
How it is done:
(§1) Approximately 10,000 RU (or 3000 RU when CM3 chip was used) of goat anti-mouse or anti-human IgG (Fcγ) fragment specific polyclonal antibody (Pierce Biotechnology Inc, Rockford, Ill.) diluted in 10 mM sodium acetate (pH 4.5) was directly immobilized across a CM5 (or CM3) research grade biosensor chip using a standard amine coupling kit according to manufacturer's instructions and procedures at 15 μg/ml. Unreacted moieties on the biosensor surface were blocked with ethanolamine. Modified carboxymethyl dextran surface in flowcells 2, 3 and 4 were used as a reaction surface. Modified carboxymethyl dextran in flow cell 1 was used as the reference surface. Biaevaluation T100 software version 2.0.2, GE Healthcare Life Sciences was used to simultaneously fit association and dissociation phases of all injections (using 1:1 fit analysis with local Rmax). Purified antibodies were diluted in running buffer for capture across goat anti-mouse or anti-human IgG specific reaction surfaces. Antibodies to be captured as a ligand (1 μg/ml) were injected over reaction matrices at a flow rate of 10 μl/minute. The association and dissociation rate constants, kon (unit M-1 s-1) and koff (unit s-1) were determined under a continuous flow rate of 50 μl/minute. […] At the end of each cycle the surfaces were regenerated with 10 s injection of 50 mM NaOH or/and by 10 s injection of 10 mM Glycine pH1.5 at a flow rate of 100 μl/min. Instrument appropriate Biaevaluation software, GE Healthcare Life Sciences was used to simultaneously fit association and dissociation constants as well as KD (using 1:1 global fit analysis with local Rₘₐₓ). Binding was recorded as a function of time and kinetic rate constants are calculated. In this assay, on-rates as fast as 10⁷ M⁻¹ s⁻¹ and off-rates as slow as 10⁻⁶ s⁻¹ can be measured.

Test [2] concerns the target T2, recombinant human sclerostin (human, UniProt Q9BQB4 24-213).
T2 construct: biotinylated in the ELISAs; also called hu sclerostin; hu scl
T2 sequence: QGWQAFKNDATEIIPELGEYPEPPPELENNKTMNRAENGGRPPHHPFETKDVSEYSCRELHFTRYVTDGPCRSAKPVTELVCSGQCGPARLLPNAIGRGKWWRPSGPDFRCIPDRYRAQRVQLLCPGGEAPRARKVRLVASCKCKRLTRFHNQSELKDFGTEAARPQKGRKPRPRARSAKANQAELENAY
How it is done:
as §1

Test [3] addresses T3, recombinant mouse sclerostin (mouse, UniProt Q99P68 24-211).
T3 construct: also called ms sclerostin; murine sclerostin
T3 sequence (looked up): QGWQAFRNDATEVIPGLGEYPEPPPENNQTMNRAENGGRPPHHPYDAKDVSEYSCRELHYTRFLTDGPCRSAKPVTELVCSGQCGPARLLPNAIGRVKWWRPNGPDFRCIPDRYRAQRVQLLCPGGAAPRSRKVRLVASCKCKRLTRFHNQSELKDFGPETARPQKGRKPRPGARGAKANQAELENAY

Test [4] concerns the target T4, recombinant rat sclerostin (rat, UniProt Q99P67 24-213, limits assumed).
T4 sequence (looked up): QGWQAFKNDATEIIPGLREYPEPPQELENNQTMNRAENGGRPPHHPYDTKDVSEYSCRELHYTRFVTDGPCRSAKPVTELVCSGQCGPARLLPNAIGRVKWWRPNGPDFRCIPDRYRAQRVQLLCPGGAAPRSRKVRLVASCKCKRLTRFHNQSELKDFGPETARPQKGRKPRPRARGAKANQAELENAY

As usually defined, the Kd is a measure of binding affinity in units of concentration. The term koff denotes the first-order rate constant of dissociation. As a reminder, the kon is a measure of how fast the partners come together.

B1: MSL10-AM5 (antibody, V domains shown)
VH: EVQLVESGGGLVQPGRSLRLSCAASGFTFDDYALHWVRQAPGKGLEWVSGISWHGDFIDYADSVKGRFTISRDNAKNSLYLQMNSLRVEDTALYYCAGNNRGYGGLDVWGQGTTVTVSS
VL: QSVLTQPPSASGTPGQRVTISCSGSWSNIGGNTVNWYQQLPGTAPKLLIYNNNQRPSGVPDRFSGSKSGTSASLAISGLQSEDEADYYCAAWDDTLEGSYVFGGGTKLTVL
For B1, in test [1], the Kd came to 1.1 nM, the koff is 8.7e-05 s⁻¹ and the on-rate constant (kon) was found to be 82000 M⁻¹ s⁻¹. In addition, in test [2], the dissociation constant Kd was 0.97 nM, the koff is 7.4e-05 s⁻¹ and the kon was 77000 M⁻¹ s⁻¹. For the same molecule, in test [3], the binding result was “no binding”. Besides, the binding result in test [4] is on record as “no binding”.

B2: MSL10-AM2.2 (antibody, V domains shown)
VH: EVQLVESGGGLVQPGRSLRLSCAASGFTFDDYALHWVRQAPGKGLEWVSGIGWEDDMIDYADSVKGRFTISRDNAKNSLYLQMNSLRVEDTALYYCAGNSRGYGGLDVWGQGTTVTVSS
VL: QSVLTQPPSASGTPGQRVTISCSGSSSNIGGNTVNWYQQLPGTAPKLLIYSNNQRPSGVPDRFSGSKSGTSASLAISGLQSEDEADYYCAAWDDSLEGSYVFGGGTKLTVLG
On to B2, for which, in test [1], the Kd is 0.11 nM, the koff is 6.7e-05 s⁻¹ and the kon was 600000 M⁻¹ s⁻¹. Also, in test [2], the Kd worked out at 0.33 nM, the koff is 0.00011 s⁻¹ and the on-rate constant (kon) turned out to be 340000 M⁻¹ s⁻¹. Besides, in test [3], the binding result is “no binding”. Further, in test [4], the binding result was “no binding”.

B3: MSL10-AM3.2 (antibody, V domains shown)
VH: EVQLVESGGGLVQPGRSLRLSCAASGFTFDDYALHWVRQAPGKGLEWVSGIGWDEDMIDYADSVKGRFTISRDNAKNSLYLQMNSLRVEDTALYYCAGNNRGYGGLDVWGQGTTVTVSS
VL: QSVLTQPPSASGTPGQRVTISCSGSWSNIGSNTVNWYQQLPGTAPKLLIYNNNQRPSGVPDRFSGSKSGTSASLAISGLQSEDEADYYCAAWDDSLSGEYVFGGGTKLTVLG
For the molecule B3, in test [1], the Kd worked out at 0.36 nM, the off-rate constant (koff) turned out to be 0.0001 s⁻¹ and the kon turned out to be 300000 M⁻¹ s⁻¹. Besides, in test [2], the dissociation constant Kd was 0.9 nM, the koff worked out at 0.00025 s⁻¹ and the kon was 280000 M⁻¹ s⁻¹. Besides, the binding result in test [3] was “no binding”. In addition, in test [4], the binding result is “no binding”.

For the origin of these results see patent US20150266977A1 (AbbVie / Abbott, published 2015).
